Source: patent EP4793287A1, “TUMOR MICROENVIRONMENT SPECIFICALLY ACTIVATED CD47 ANTIBODY” (Affinity (Shanghai) Biopharmaceutical Co., Ltd., priority 2023, dated 2025)
Where a chain is given by its changes, count along the chain named. Numbers in names are those of the source. Like-named read-outs stand apart in the source and are kept apart here.

Tests used:
[1] = target: antibody antigen (CD47) coated in the ELISA of Example 3 (UniProt Q08722); experiment: ELISA on coated antigen, ratio against wild-type 70H1
antibody antigen (CD47) coated in the ELISA of Example 3, sequence (Q08722 19-139 limits assumed): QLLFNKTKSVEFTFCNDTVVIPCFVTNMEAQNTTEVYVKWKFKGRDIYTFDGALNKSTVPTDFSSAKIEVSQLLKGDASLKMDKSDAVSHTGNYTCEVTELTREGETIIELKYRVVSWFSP

[2] = target: T1, CD47 on CHOK1-CD47 cells (UniProt Q08722 19-323); experiment: flow cytometry on CHOK1-CD47 cells
T1 construct: whole, on cells; The rabbits were immunized with human CD47, so human is likely
T1 sequence (Q08722 19-323 limits assumed): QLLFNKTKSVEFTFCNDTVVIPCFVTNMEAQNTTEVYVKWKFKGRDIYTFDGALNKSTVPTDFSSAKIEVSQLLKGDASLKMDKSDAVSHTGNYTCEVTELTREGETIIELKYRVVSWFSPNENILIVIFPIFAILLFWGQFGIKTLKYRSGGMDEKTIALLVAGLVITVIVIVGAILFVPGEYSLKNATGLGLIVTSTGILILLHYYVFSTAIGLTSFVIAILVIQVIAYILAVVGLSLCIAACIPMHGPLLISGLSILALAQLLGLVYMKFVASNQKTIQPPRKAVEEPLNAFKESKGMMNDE

[3] = target: T2, Recombinant human CD47 protein (DIMA BIOTECH, Cat# PME-100008) (human, UniProt Q08722 19-139, limits assumed); experiment: ELISA on coated recombinant human CD47
T2 construct: Bought protein, coated on ELISA plates; also called CD47 antigen
T2 sequence (Q08722 19-139 limits assumed): as the sequence (Q08722 19-139 limits assumed) above

[4] = target: T3, CD47 on Raji cells (human, UniProt Q08722 19-323); experiment: flow cytometry on Raji cells
T3 construct: whole, on cells
T3 sequence (Q08722 19-323): as the sequence (Q08722 19-323 limits assumed) above

[5] = target: T1, CD47 on CHOK1-CD47 cells; experiment: flow cytometry on CHOK1-CD47 cells; remark: listed apart in the source
[6] = target: T4, human CD47 antigen (immobilized on CM5 chip, Biacore) (human, UniProt Q08722 19-139, limits assumed); experiment: SPR (Biacore T200), CD47 antigen on CM5 chip, antibody as analyte, 1:1 model
T4 sequence (Q08722 19-139 limits assumed): as the sequence (Q08722 19-139 limits assumed) above

[7] = target: T1, CD47 on CHOK1-CD47 cells; experiment: flow cytometry on CHOK1-CD47 cells; remark: listed apart in the source
[8] = target: T2, Recombinant human CD47 protein (DIMA …); experiment: ELISA on coated recombinant human CD47; remark: listed apart in the source
[9] = target: T4, human CD47 antigen (immobilized on CM5 …); experiment: SPR (Biacore T200)
[10] = target: T3, CD47 on Raji cells; experiment: flow cytometry on Raji cells; remark: listed apart in the source

B1: 70H1 mutant VH-33 Y to C (antibody, V domains shown)
VH: QQQLEESGGGLVKPEGSLTLTCTASGFSFSSGCDMCWVRQAPGRGLEWIACIYTRSSGGTYYASWAKGRFTISKTSSTVDLRMTSLTAADTATYFCAGGRSSYRLNLWGQGALVTVSS
VL: DVVMTQTPSPVEAAVGGTVTIKCQASQSISNELSWYQQKPGQPPKLLIYRASTLESGVSSRFKGSGSGTEFTLTISDLECADAATYYCQSTFYGDYGNAFGGGTEVVVK
**Q.** Which Mutant Binding Strength (EC50 post-mutation / EC50 wild-type) [1] does the source give for B1 here?
**A.** 1

B2: 70H1 mutant VH-55 R to C (antibody, V domains shown)
VH: B1 VH with C33Y, R55C
VL: B1 VL
**Q.** For B2, which Mutant Binding Strength (EC50 post-mutation / EC50 wild-type) [1] is on record?
**A.** 1

B3: 70H1.IgG1.Y61C (antibody, V domains shown)
VH: B1 VH with C33Y, Y61C
VL: B1 VL
notes: IgG1; also called 70H1 IgG1-mutation; 70H1 mutant VH-61 (Y-C)
**Q.** Which results are given for B3?
**A.** EC50 [2]: 0.39 nM; EC50 [3]: 0.07 nM; Mutant Binding Strength (EC50 post-mutation / EC50 wild-type) [1]: 1; EC50 [4]: 0.47 nM

B4: 70H1 mutant VH-65 W to C (antibody, V domains shown)
VH: B1 VH with C33Y, W65C
VL: B1 VL
**Q.** How did the Mutant Binding Strength (EC50 post-mutation / EC50 wild-type) [1] turn out when B4 was run?
**A.** 0.8

B5: 70H1 mutant VL-27 Q to C (antibody, V domains shown)
VH: B1 VH with C33Y
VL: B1 VL with Q27C
**Q.** With B5 as the binder, how does the Mutant Binding Strength (EC50 post-mutation / EC50 wild-type) [1] read?
**A.** 1

B6: 70H1 mutant VL-49 Y to C (antibody, V domains shown)
VH: B1 VH with C33Y
VL: B1 VL with Y49C
**Q.** Which Mutant Binding Strength (EC50 post-mutation / EC50 wild-type) [1] does the source give for B6 here?
**A.** 0.9

B7: 70H1 mutant VL-53 T to C (antibody, V domains shown)
VH: B1 VH with C33Y
VL: B1 VL with T53C
**Q.** Which Mutant Binding Strength (EC50 post-mutation / EC50 wild-type) [1] does the source give for B7 here?
**A.** 1

B8: 70H1 mutant VL-92 F to C (antibody, V domains shown)
VH: B1 VH with C33Y
VL: B1 VL with F92C
**Q.** For B8, which Mutant Binding Strength (EC50 post-mutation / EC50 wild-type) [1] is on record?
**A.** 1.3

B9: 70H1 mutant VL-93 Y to C (antibody, V domains shown)
VH: B1 VH with C33Y
VL: B1 VL with Y93C
**Q.** B9 was tested. Which Mutant Binding Strength (EC50 post-mutation / EC50 wild-type) [1] did it give?
**A.** 1

B10: 70H1 mutant VL-96 Y to C (antibody, V domains shown)
VH: B1 VH with C33Y
VL: B1 VL with Y96C
**Q.** Which Mutant Binding Strength (EC50 post-mutation / EC50 wild-type) [1] does the source give for B10 here?
**A.** 1

B11: 70H1 mutant VL-98 N to C (antibody, V domains shown)
VH: B1 VH with C33Y
VL: B1 VL with N98C
**Q.** How did the Mutant Binding Strength (EC50 post-mutation / EC50 wild-type) [1] turn out when B11 was run?
**A.** 1

B12: 69F12 (antibody, V domains shown)
VH: QSVEESEGGLFKPTDTLTLTCTISGFSLSNYDMIWVRQAPGNGLEYIGIISSRDKAGHAAWAKRRSTITRNPKENTVTLKMTSLTVADTATYFCARRFSSMHGLDIWGPGTLVTVSS
VL: AYDMTQTPSSVSAAVGGTVTIKCQASQSISNYLSWYQQKPGQPPKLLIYLASTLASGVPSRFKGSGSGTQFTLTISGVQCADAATYYCQQGYSSDSVDNVFGGGTEVVVK
notes: Recombinant rabbit monoclonal antibody expressed in Expi293; it was detected with anti-human IgG Fc
**Q.** For B12, which EC50 [5] is on record?
**A.** 0.8 nM

B13: 70H1 (antibody, V domains shown)
VH: B1 VH with C33Y
VL: B1 VL
notes: Rabbit-derived variable regions; also called 70H1.IgG1; 70H1 antibody
**Q.** With B13 as the binder, how does the Kd [6] read?
**A.** 0.0308 nM

**Q.** What about the koff [6] of the same binder?
**A.** 0.00014 s⁻¹

**Q.** And the kon [6]?
**A.** 4.54e+06 M⁻¹ s⁻¹

**Q.** What about the EC50 [2] of the same binder?
**A.** 0.38 nM

**Q.** And the EC50 [3]?
**A.** 0.12 nM

**Q.** And the EC50 [7]?
**A.** 0.35 nM

**Q.** And the EC50 [5]?
**A.** 0.91 nM

B14: CD47 TMEAbody (70H1.IgG1.Y61C + 20K PEG) (antibody, V domains shown)
VH: B1 VH with C33Y, Y61C
VL: B1 VL
modifications: Cys 61 (Y61C) conjugated with PEG of approximately 20K molecular weight (blocker, cleavable by legumain)
notes: IgG1; The same question of backbone applies as for 70H1.IgG1.Y61C; also called 70H1 TMEAbody; 70H1; IgG1 + 20K PEG
**Q.** How did the Kd [6] turn out when B14 was run?
**A.** 14.1 nM

**Q.** And the koff [6]?
**A.** 0.000343 s⁻¹

**Q.** And the kon [6]?
**A.** 24400 M⁻¹ s⁻¹

**Q.** What about the EC50 [2] of the same binder?
**A.** 7.6 nM

**Q.** And the EC50 [3]?
**A.** 0.72 nM

**Q.** And the “fold weaker binding affinity compared to 70H1” value [8]?
**A.** ~7 fold

**Q.** What about the “fold decrease of affinity compared to 70H1” value [9] of the same binder?
**A.** 470 fold

**Q.** And the “fold lower binding compared to 70H1” value [10]?
**A.** ~60 fold

**Q.** What about the “fold lower binding compared to 70H1” value [5] of the same binder?
**A.** ~20 fold

**Q.** What about the EC50 [4] of the same binder?
**A.** 31.9 nM

B15: CD47 TMEAbody activated (antibody, IgG1, V domains shown)
VH: B1 VH with C33Y, Y61C
VL: B1 VL
modifications: Cys 61 (Y61C): 20K PEG blocker cleaved off by legumain (asparaginyl endopeptidase); what remains on the Cys is not stated
notes: The CD47 TMEAbody after treatment with legumain / asparaginyl endopeptidase; IgG1
**Q.** With B15 as the binder, how does the EC50 [2] read?
**A.** 0.91 nM

**Q.** And the EC50 [3]?
**A.** 0.15 nM

**Q.** What about the EC50 [4] of the same binder?
**A.** 0.24 nM

B16: 70H1-VH2VL2 (antibody, V domains shown)
VH: QQQLVESGGGVVQPGGSLRLSCAASGFTFSSGYDMCWVRQAPGKGLEWIACIYTRSSGGTYYASWAKGRFTISKDNSKNTLYLQMNSLRAEDTAVYYCAKGRSSYRLNLWGQGTLVTVSS
VL: DIQMTQSPSTLSASVGDRVTIKCQASQSISNELSWYQQKPGKAPKLLIYRASTLESGVSSRFSGSGSGTEFTLTISSLQPDDFATYYCQSTFYGDYGNAFGGGTKVEIK
notes: Humanized 70H1
**Q.** For B16, which EC50 [7] is on record?
**A.** 1.17 nM

B17: 70H1-VH1VL1 (antibody, V domains shown)
VH: B16 VH with Q2V, I49V, A50S, K74R
VL: B16 VL with K22T, S59P
notes: Humanized 70H1
**Q.** Which EC50 [7] does the source give for B17 here?
**A.** 1.04 nM

B18: 70H1-VH1VL3 (antibody, V domains shown)
VH: B16 VH with Q2V, I49V, A50S, K74R
VL: B16 VL with A43P
notes: Humanized 70H1
**Q.** Which EC50 [7] does the source give for B18 here?
**A.** 1.76 nM

B19: 70H1-VH2VL1 (antibody, V domains shown)
VH: B16 VH
VL: B16 VL with K22T, S59P
notes: Humanized 70H1
**Q.** How did the EC50 [7] turn out when B19 was run?
**A.** 1.09 nM

B20: 70H1-VH2VL3 (antibody, V domains shown)
VH: B16 VH
VL: B16 VL with A43P
notes: Humanized 70H1
**Q.** B20 was tested. Which EC50 [7] did it give?
**A.** 1.05 nM

B21: 70H1-VH3VL1 (antibody, V domains shown)
VH: B16 VH with T28S, Y97F
VL: B16 VL with K22T, S59P
notes: Humanized 70H1, the final preferred antibody
**Q.** For B21, which EC50 [7] is on record?
**A.** 0.23 nM

B22: 70H1-VH3VL2 (antibody, V domains shown)
VH: B16 VH with T28S, Y97F
VL: B16 VL
notes: Humanized 70H1
**Q.** With B22 as the binder, how does the EC50 [7] read?
**A.** 0.64 nM

B23: 70H1-VH3VL3 (antibody, V domains shown)
VH: B16 VH with T28S, Y97F
VL: B16 VL with A43P
notes: Humanized 70H1
**Q.** How did the EC50 [7] turn out when B23 was run?
**A.** 1.01 nM

B24: 70G1 (antibody, V domains shown)
VH: QSVKESEGGLFKPTDTLTLTCTVSGFSLSNYAINWVRQAPGNGLEWIGIINGYGMTYYASWAKSRSTITRNTSENTVTLKLTSLTAADTATYFCARDRYGSYVGYSSDIWGPGTLVTVSS
VL: AYDMTQTPASVEAAVGGTVTIKCQASQNISSRLAWYQQKPGQPPKLLIYGTSTLASGVPSRFRGSGSGTQFSLTISDLECADAATYYCQHGYYYSSSFTTYNAFGGGTEVVVK
notes: as for B12
**Q.** With B24 as the binder, how does the EC50 [5] read?
**A.** 2.88 nM

B25: 71D6 (antibody, V domains shown)
VH: QSLEESGGDLVKPGASLTLTCTASGFSFSTSYWIYWVRQAPGKGLELIACIATGSDGSTYYASWASGRFTISKTSSTTVTLQMTSLTAADTATYFCAREAGNGVYNLWGQGTLVTVSS
VL: AYDMTQTPASVEVAVGGTVTIKCQASESIRNALAWYQQKPGQPPKLLISGASKLASGVASRFKGSGSATEFTLTISDLECADAATYYCQQYYSSSNVDNGFGGGTEVVVK
notes: as for B12
**Q.** With B25 as the binder, how does the EC50 [5] read?
**A.** 3.8 nM

B26: 74F1 (antibody, V domains shown)
VH: QQQLEESGGDLVKPEGSLTLTCTASGFSFSSRYNMCWVRQAPGKGLEWIACIYTGSSGSTYYASWAKGRFTISKTSSTVDLKMTSLTAADTATYFCAGGSYSYRLNLWGQGTLVTVSS
VL: B1 VL with S9A, P10S, E12S, A13T, K63S, S90A, F92G, Y96F
notes: as for B12
**Q.** For B26, which EC50 [5] is on record?
**A.** 2.82 nM
